Assay results reported in patent US20250353912A1, “COMPOSITIONS AND METHODS COMPRISING ANTIBODIES THAT BIND TO COVALENT PEPTIDE CONJUGATES” (New York University, priority 2022, published 2025).
Where a chain is given by its changes, count along the chain named.

B1: EO_Q16: affinity matured clone of OEA2-5, osimertinib-EGFR on HLA-A*02 (antibody, V domains shown)
VH: EVQLVESGGGLVQPGGSLRLSCAASGFTISSSYIHWVRQAPGKGLEWVAYISPSYGSTSYADSVKGRFTISADTSKNTAYLQMNSLRAEDTAVYYCAREYVTMSIDYWGQGTLVTVSS
VL: DIQMTQSPSSLSASVGDRVTITCRASQSVSSAVAWYQQKPGKAPKLLIYSASSLYSGVPSRFSGSRSGTDFTLTISSLQPEDFATYYCQQYSDWPITFGQGTKVEIKRTV
B2: EO_Q17: affinity matured clone of OEA2-5, osimertinib-EGFR on HLA-A*02 (antibody, V domains shown)
VH: B1 VH with Y100L, T102E, S104T, I105P
VL: B1 VL with D93S

Target: osimertinib-EGFR/HLA-A*02 (Homo sapiens, UniProt P00533)
Test: Yeast-display binding of affinity matured clones
Conditions: for binding to EGFR/HLA-A*02 (no drug-conjugation) / binding to osimertinib-EGFR/HLA-A*02: binding titration, FIG. 39; for inhibition of antigen binding by free drug: osimertinib-EGFR/HLA-A*02 10 nM, free osimertinib 1 μM, FIG. 40
Description: FIG. 40. Binding of EO_Q16 and EO_Q17 to osimertinib-EGFR/HLA-A*02 (10 nM) in the absence and presence of free osimertinib (1 μM), showing that antigen binding of these antibodies is not inhibited by the presence of free drug.
The binding partners described above in this Example show higher binding signals to osimertinib-EGFR/HLA-A*02, as tested in the yeast display format and as shown in FIGS. 39 and 40.

Row | Molecule | binding to EGFR/HLA-A*02 (no drug-conjugation) | binding to osimertinib-EGFR/HLA-A*02 | inhibition of antigen binding by free drug
1 | B1 | not to the equivalent antigen without drug conjugation | high affinity | not inhibited
2 | B2 | not to the equivalent antigen without drug conjugation | high affinity | not inhibited
